Measured values from article doi:10.1101/2022.06.02.494630 (bioRxiv, 2022).

Molecular target: T1, GST-tagged recombinant PfPHB2 (Plasmodium falciparum (3D7), UniProt Q8IJP8 1-304)
T1 sequence (looked up): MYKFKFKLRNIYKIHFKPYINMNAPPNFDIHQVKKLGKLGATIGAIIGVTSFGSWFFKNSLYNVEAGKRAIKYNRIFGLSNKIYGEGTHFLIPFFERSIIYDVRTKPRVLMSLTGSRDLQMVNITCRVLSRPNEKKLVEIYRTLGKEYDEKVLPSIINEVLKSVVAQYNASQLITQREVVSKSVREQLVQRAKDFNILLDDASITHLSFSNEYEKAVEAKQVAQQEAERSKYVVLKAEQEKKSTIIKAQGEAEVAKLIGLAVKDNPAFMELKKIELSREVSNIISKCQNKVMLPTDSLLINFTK
Experiment: MST

B1: GST-tagged recombinant PfPHB1 (natural protein, Plasmodium falciparum (3D7), UniProt Q8IBC3 1-272, looked up)
chain: MERILSSIGKLSVVAGGLSLIPYTFIYDVDGGERCVMFNRFGGVSENTFGEGSHFYVPWFQTPYIYDIKMKPKVINTTTGTRDLQIVTISLRLLFRPHTQHLPYLHSTLGPDYDERVLPSIGNEVLKAVVAKYNAESLLTQRDKISKEIRESITARAKHFNILLDDVAITHLSYGKEFAKAIEDKQVAQQESERVKFIVAKTEQEKIAAVIKAQGEAEAAKLISSAVKEYGKSLIEIRKLEAAKEIAENLSKSKNVTYFPSNSNILLNPRDF
modifications: Lysine reactive dye (Monolith Protein Labelling Kit Red-NHS 2nd Generation), in the MST only
  Kd: 0.136 ± 0.0105 µM
